# From US20230220021A1 (UNIVERSITY OF COPENHAGEN, published 2023)
# [ ]: non-standard residue; d: D form.
# Target: T1, (7× His)-PSD-95-PDZ2 wild type (UniProt P78352 160-246)
# T1 construct: domain: PDZ2; recombinant from E. coli; also called PSD-95-PDZ2 WT; not shown: 7x His tag
# Assay: FP competition
# T1 sequence (P78352 160-246): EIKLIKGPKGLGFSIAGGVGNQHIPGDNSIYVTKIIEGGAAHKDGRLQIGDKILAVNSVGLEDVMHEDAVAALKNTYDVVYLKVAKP
Binder,Ki,Relative Ki (Ki mut/Ki WT)
cyclo(THLETTFTGDGTPKNIRVTQ[dP]GQ) (SMILES CC[C@H](C)[C@@H]1NC(=O)[C@H](CC(N)=O)NC(=O)[C@H](CCCCN)NC(=O)[C@@H]2CCCN2C(=O)[C@H]([C@@H](C)O)NC(=O)CNC(=O)[C@H](CC(=O)O)NC(=O)CNC(=O)[C@H]([C@@H](C)O)NC(=O)[C@H](Cc2ccccc2)NC(=O)[C@H]([C@@H](C)O)NC(=O)[C@H]([C@@H](C)O)NC(=O)[C@H](CCC(=O)O)NC(=O)[C@H](CC(C)C)NC(=O)[C@H](Cc2c[nH]cn2)NC(=O)[C@H]([C@@H](C)O)NC(=O)[C@H](CCC(N)=O)NC(=O)CNC(=O)[C@H]2CCCN2C(=O)[C@H](CCC(N)=O)NC(=O)[C@H]([C@@H](C)O)NC(=O)[C@H](C(C)C)NC(=O)[C@H](CCCNC(=N)N)NC1=O) [cyclic nNOS β-hairpin peptide T119N],18900 nM,12.6
cyclo(THLETTFTGDGTPKTIRFTQ[dP]GQ) (SMILES CC[C@H](C)[C@@H]1NC(=O)[C@H]([C@@H](C)O)NC(=O)[C@H](CCCCN)NC(=O)[C@@H]2CCCN2C(=O)[C@H]([C@@H](C)O)NC(=O)CNC(=O)[C@H](CC(=O)O)NC(=O)CNC(=O)[C@H]([C@@H](C)O)NC(=O)[C@H](Cc2ccccc2)NC(=O)[C@H]([C@@H](C)O)NC(=O)[C@H]([C@@H](C)O)NC(=O)[C@H](CCC(=O)O)NC(=O)[C@H](CC(C)C)NC(=O)[C@H](Cc2c[nH]cn2)NC(=O)[C@H]([C@@H](C)O)NC(=O)[C@H](CCC(N)=O)NC(=O)CNC(=O)[C@H]2CCCN2C(=O)[C@H](CCC(N)=O)NC(=O)[C@H]([C@@H](C)O)NC(=O)[C@H](Cc2ccccc2)NC(=O)[C@H](CCCNC(=N)N)NC1=O) [cyclic nNOS β-hairpin peptide V122F],1340 nM,0.89
cyclo(THLETTFTGDGTPKTIRVFQ[dP]GQ) (SMILES CC[C@H](C)[C@@H]1NC(=O)[C@H]([C@@H](C)O)NC(=O)[C@H](CCCCN)NC(=O)[C@@H]2CCCN2C(=O)[C@H]([C@@H](C)O)NC(=O)CNC(=O)[C@H](CC(=O)O)NC(=O)CNC(=O)[C@H]([C@@H](C)O)NC(=O)[C@H](Cc2ccccc2)NC(=O)[C@H]([C@@H](C)O)NC(=O)[C@H]([C@@H](C)O)NC(=O)[C@H](CCC(=O)O)NC(=O)[C@H](CC(C)C)NC(=O)[C@H](Cc2c[nH]cn2)NC(=O)[C@H]([C@@H](C)O)NC(=O)[C@H](CCC(N)=O)NC(=O)CNC(=O)[C@H]2CCCN2C(=O)[C@H](CCC(N)=O)NC(=O)[C@H](Cc2ccccc2)NC(=O)[C@H](C(C)C)NC(=O)[C@H](CCCNC(=N)N)NC1=O) [cyclic nNOS β-hairpin peptide T123F],1580 nM,1.05
cyclo(THLETTFTGDGTPKTIRRTQ[dP]GQ) (SMILES CC[C@H](C)[C@@H]1NC(=O)[C@H]([C@@H](C)O)NC(=O)[C@H](CCCCN)NC(=O)[C@@H]2CCCN2C(=O)[C@H]([C@@H](C)O)NC(=O)CNC(=O)[C@H](CC(=O)O)NC(=O)CNC(=O)[C@H]([C@@H](C)O)NC(=O)[C@H](Cc2ccccc2)NC(=O)[C@H]([C@@H](C)O)NC(=O)[C@H]([C@@H](C)O)NC(=O)[C@H](CCC(=O)O)NC(=O)[C@H](CC(C)C)NC(=O)[C@H](Cc2c[nH]cn2)NC(=O)[C@H]([C@@H](C)O)NC(=O)[C@H](CCC(N)=O)NC(=O)CNC(=O)[C@H]2CCCN2C(=O)[C@H](CCC(N)=O)NC(=O)[C@H]([C@@H](C)O)NC(=O)[C@H](CCCNC(=N)N)NC(=O)[C@H](CCCNC(=N)N)NC1=O) [cyclic nNOS β-hairpin peptide V122R],1690 nM,1.13
cyclo(THLETTFTGDGTPKTIRVRQ[dP]GQ) (SMILES CC[C@H](C)[C@@H]1NC(=O)[C@H]([C@@H](C)O)NC(=O)[C@H](CCCCN)NC(=O)[C@@H]2CCCN2C(=O)[C@H]([C@@H](C)O)NC(=O)CNC(=O)[C@H](CC(=O)O)NC(=O)CNC(=O)[C@H]([C@@H](C)O)NC(=O)[C@H](Cc2ccccc2)NC(=O)[C@H]([C@@H](C)O)NC(=O)[C@H]([C@@H](C)O)NC(=O)[C@H](CCC(=O)O)NC(=O)[C@H](CC(C)C)NC(=O)[C@H](Cc2c[nH]cn2)NC(=O)[C@H]([C@@H](C)O)NC(=O)[C@H](CCC(N)=O)NC(=O)CNC(=O)[C@H]2CCCN2C(=O)[C@H](CCC(N)=O)NC(=O)[C@H](CCCNC(=N)N)NC(=O)[C@H](C(C)C)NC(=O)[C@H](CCCNC(=N)N)NC1=O) [cyclic nNOS β-hairpin peptide T123R],1590 nM,1.06
cyclo(THLETTFTGDGTPKTIRYTQ[dP]GQ) (SMILES CC[C@H](C)[C@@H]1NC(=O)[C@H]([C@@H](C)O)NC(=O)[C@H](CCCCN)NC(=O)[C@@H]2CCCN2C(=O)[C@H]([C@@H](C)O)NC(=O)CNC(=O)[C@H](CC(=O)O)NC(=O)CNC(=O)[C@H]([C@@H](C)O)NC(=O)[C@H](Cc2ccccc2)NC(=O)[C@H]([C@@H](C)O)NC(=O)[C@H]([C@@H](C)O)NC(=O)[C@H](CCC(=O)O)NC(=O)[C@H](CC(C)C)NC(=O)[C@H](Cc2c[nH]cn2)NC(=O)[C@H]([C@@H](C)O)NC(=O)[C@H](CCC(N)=O)NC(=O)CNC(=O)[C@H]2CCCN2C(=O)[C@H](CCC(N)=O)NC(=O)[C@H]([C@@H](C)O)NC(=O)[C@H](Cc2ccc(O)cc2)NC(=O)[C@H](CCCNC(=N)N)NC1=O) [cyclic nNOS β-hairpin peptide V122Y],1270 nM,0.85
cyclo(THLETTFTGDGTPKSIRVTQ[dP]GQ) (SMILES CC[C@H](C)[C@@H]1NC(=O)[C@H](CO)NC(=O)[C@H](CCCCN)NC(=O)[C@@H]2CCCN2C(=O)[C@H]([C@@H](C)O)NC(=O)CNC(=O)[C@H](CC(=O)O)NC(=O)CNC(=O)[C@H]([C@@H](C)O)NC(=O)[C@H](Cc2ccccc2)NC(=O)[C@H]([C@@H](C)O)NC(=O)[C@H]([C@@H](C)O)NC(=O)[C@H](CCC(=O)O)NC(=O)[C@H](CC(C)C)NC(=O)[C@H](Cc2c[nH]cn2)NC(=O)[C@H]([C@@H](C)O)NC(=O)[C@H](CCC(N)=O)NC(=O)CNC(=O)[C@H]2CCCN2C(=O)[C@H](CCC(N)=O)NC(=O)[C@H]([C@@H](C)O)NC(=O)[C@H](C(C)C)NC(=O)[C@H](CCCNC(=N)N)NC1=O) [cyclic nNOS β-hairpin peptide T119S],7190 nM,4.79
cyclo(THLETTFTGDGTPKTIRVYQ[dP]GQ) (SMILES CC[C@H](C)[C@@H]1NC(=O)[C@H]([C@@H](C)O)NC(=O)[C@H](CCCCN)NC(=O)[C@@H]2CCCN2C(=O)[C@H]([C@@H](C)O)NC(=O)CNC(=O)[C@H](CC(=O)O)NC(=O)CNC(=O)[C@H]([C@@H](C)O)NC(=O)[C@H](Cc2ccccc2)NC(=O)[C@H]([C@@H](C)O)NC(=O)[C@H]([C@@H](C)O)NC(=O)[C@H](CCC(=O)O)NC(=O)[C@H](CC(C)C)NC(=O)[C@H](Cc2c[nH]cn2)NC(=O)[C@H]([C@@H](C)O)NC(=O)[C@H](CCC(N)=O)NC(=O)CNC(=O)[C@H]2CCCN2C(=O)[C@H](CCC(N)=O)NC(=O)[C@H](Cc2ccc(O)cc2)NC(=O)[C@H](C(C)C)NC(=O)[C@H](CCCNC(=N)N)NC1=O) [cyclic nNOS β-hairpin peptide T123Y],1870 nM,1.25
